According to patent publication US20200354462A1:

Biological target: human GnRH receptor expressed on the surface of OC-3-VGH cancer cells (human) (UniProt P30968)
Test: cell-based or functional assay

UniProt P30968, sequence (P30968 whole entry): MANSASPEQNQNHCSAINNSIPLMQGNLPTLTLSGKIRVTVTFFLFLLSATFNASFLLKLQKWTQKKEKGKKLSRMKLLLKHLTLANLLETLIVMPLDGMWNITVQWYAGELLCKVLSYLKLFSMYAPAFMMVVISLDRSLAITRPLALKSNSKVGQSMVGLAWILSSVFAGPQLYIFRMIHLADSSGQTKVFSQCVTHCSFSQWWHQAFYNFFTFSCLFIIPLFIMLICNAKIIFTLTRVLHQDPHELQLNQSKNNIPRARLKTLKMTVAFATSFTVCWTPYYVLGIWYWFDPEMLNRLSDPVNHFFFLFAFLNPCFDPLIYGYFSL

A GnRH gene expression in cancer cells of 50% was found for antide (peptide) in this work.
